EC50 data for one substance are collected here from US20250230248A1.

Broadly, the EC50 is the concentration needed to bring the measured effect to its halfway point.

Test [1] addresses recombinant human CD64 (human) (UniProt P12314).
Test [2] concerns the target recombinant human CD16a (human) (UniProt P08637).
Another test has as its target human C1q (human) (UniProt P02745).
The target of test [3] is recombinant human CD32a (human) (UniProt P12318).
recombinant human CD32a (human), sequence (P12318 34-217): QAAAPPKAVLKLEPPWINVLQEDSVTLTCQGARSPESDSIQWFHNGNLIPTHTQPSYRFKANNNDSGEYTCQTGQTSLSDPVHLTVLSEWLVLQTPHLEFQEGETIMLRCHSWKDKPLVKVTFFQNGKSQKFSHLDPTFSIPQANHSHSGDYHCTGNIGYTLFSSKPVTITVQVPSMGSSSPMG

recombinant human CD16a (human), sequence (P08637 17-208 limits assumed): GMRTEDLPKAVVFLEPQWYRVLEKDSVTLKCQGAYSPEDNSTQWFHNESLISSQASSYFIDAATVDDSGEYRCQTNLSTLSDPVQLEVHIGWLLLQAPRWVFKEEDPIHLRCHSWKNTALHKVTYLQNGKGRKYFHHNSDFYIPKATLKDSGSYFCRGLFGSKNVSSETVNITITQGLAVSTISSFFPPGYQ
recombinant human CD64 (human), sequence (P12314 16-288 limits assumed): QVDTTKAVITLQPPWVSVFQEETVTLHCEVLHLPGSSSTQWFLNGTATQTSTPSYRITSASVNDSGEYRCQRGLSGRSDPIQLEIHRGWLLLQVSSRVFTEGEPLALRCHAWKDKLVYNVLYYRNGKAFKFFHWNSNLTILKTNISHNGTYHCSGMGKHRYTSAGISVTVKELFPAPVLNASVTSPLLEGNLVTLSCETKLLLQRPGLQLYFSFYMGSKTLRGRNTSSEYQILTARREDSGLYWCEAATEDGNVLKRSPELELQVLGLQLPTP
human C1q (human), sequence (P02745 23-245 limits assumed, chain 1 of 3): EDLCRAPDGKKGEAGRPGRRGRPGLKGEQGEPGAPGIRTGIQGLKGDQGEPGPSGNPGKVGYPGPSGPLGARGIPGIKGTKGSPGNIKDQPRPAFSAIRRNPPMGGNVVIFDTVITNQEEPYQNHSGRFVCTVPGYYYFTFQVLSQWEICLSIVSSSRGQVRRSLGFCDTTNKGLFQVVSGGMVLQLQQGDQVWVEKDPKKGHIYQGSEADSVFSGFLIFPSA
human C1q (human), sequence (P02746 28-253 limits assumed, chain 2 of 3, further chain): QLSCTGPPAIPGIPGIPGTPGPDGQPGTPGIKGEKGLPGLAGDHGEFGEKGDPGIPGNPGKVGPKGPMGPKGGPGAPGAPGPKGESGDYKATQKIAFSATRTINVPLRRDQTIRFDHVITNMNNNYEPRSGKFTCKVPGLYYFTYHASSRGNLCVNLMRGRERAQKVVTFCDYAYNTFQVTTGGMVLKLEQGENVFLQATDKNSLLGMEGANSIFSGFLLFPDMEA
human C1q (human), sequence (P02747 29-245 limits assumed, chain 3 of 3, further chain): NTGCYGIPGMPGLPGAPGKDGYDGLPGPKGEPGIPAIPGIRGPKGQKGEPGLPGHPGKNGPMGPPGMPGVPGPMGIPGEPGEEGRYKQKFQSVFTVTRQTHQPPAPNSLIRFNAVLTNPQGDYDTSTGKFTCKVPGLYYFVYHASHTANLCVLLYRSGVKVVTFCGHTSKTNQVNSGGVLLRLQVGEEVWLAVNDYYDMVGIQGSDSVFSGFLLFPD

Consider isotype mAb with human IgG1 (antibody), for which the EC50 in test [1] came out at 0.12 nM; in test [2] it was 3.7 nM; with human C1q (human), 14.1 nM; in test [3], 14 nM.
